Results reported in patent US20080234193A1 (published 2008).
Values joined by “and” are separate entries in the source; they are usually repeats but may differ in a detail not shown here. Equal entries are not always repeated. Values belong to the molecule of their own block, whether it stands above or below them.

Columns and labels:
[1] = biological target: native rFVIII MOQ HEPES 01-E (Advate rAHF-PFM bulk drug substance) (UniProt P00451); assay: ECA, value related to the rVWF protein
[2] = biological target: native rFVIII MOQ HEPES 01-E (Advate rAHF-PFM bulk drug substance) (UniProt P00451); assay: ECA, value as percent of VWF:Ag
[3] = biological target: native rFVIII MOQ HEPES 01-E (Advate rAHF-PFM bulk drug substance) (UniProt P00451); assay: ELISA chromogenic assay (ECA): VWF-rFVIII complex captured on anti-VWF antibody, bound FVIII by chromogenic assay
[4] = biological target: PEG-rFVIII Lys 20K br short (UniProt P00451)
PEG-rFVIII Lys 20K br short, sequence (P00451 whole entry, looked up): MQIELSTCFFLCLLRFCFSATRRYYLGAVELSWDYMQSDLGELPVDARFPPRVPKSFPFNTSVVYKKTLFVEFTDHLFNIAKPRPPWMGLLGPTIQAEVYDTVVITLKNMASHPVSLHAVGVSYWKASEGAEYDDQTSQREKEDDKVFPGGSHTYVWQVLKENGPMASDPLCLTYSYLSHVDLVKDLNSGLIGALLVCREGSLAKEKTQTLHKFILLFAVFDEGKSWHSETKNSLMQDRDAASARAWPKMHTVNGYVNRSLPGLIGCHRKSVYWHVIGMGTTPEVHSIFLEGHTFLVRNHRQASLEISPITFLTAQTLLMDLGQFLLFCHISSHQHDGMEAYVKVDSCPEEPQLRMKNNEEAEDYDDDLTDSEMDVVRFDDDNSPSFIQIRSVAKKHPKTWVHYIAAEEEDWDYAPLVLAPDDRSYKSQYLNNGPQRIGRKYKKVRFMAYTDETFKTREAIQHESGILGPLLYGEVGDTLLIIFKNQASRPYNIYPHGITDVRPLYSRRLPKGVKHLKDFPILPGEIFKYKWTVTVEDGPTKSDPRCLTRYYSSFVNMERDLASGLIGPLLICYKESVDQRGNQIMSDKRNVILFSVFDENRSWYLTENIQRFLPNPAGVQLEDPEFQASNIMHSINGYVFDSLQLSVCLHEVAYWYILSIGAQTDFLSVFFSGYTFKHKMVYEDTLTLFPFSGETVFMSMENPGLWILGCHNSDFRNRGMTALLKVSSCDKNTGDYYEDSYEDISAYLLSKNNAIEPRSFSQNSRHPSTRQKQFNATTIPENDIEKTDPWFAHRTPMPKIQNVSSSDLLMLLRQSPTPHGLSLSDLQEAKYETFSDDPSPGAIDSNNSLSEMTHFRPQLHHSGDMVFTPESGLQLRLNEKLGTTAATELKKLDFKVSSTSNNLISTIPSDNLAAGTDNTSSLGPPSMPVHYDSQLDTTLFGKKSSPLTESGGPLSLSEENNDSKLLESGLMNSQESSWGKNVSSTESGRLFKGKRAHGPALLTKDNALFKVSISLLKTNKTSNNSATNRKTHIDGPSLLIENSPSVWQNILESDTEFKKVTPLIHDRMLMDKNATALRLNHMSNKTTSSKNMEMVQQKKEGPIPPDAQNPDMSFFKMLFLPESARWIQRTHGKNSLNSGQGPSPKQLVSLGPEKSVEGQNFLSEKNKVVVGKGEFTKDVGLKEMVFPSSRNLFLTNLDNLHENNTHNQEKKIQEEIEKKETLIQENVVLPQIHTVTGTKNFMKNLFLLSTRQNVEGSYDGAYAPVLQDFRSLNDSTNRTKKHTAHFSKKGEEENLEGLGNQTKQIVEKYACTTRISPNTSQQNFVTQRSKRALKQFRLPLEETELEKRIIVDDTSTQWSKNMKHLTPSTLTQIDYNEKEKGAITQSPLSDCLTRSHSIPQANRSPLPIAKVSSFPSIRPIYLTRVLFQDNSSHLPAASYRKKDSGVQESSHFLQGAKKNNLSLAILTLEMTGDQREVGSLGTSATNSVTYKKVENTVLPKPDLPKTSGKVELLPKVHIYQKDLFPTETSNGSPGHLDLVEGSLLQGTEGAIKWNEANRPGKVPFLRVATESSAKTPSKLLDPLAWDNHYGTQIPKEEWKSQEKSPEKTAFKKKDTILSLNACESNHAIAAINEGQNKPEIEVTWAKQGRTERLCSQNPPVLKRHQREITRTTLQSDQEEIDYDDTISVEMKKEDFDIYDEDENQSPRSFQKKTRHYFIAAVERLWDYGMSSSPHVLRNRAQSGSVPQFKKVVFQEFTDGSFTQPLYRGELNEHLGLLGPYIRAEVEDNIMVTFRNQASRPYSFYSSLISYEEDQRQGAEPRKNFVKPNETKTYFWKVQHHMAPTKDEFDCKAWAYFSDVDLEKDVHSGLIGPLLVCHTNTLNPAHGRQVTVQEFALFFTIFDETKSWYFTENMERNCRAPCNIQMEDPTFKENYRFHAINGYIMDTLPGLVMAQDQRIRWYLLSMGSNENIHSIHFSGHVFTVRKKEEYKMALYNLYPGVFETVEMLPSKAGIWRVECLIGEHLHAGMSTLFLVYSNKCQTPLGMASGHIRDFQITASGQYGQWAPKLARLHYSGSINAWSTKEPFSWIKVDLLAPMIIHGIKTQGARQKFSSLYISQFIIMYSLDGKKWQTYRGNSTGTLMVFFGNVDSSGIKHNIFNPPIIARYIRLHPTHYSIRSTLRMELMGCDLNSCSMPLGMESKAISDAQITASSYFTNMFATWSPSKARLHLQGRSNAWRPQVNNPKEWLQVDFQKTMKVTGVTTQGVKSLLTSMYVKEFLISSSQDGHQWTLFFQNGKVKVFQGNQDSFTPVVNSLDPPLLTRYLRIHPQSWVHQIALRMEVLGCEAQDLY

[5] = biological target: PEG-rFVIII Lys 40K br short (UniProt P00451)
PEG-rFVIII Lys 40K br short, sequence (P00451 whole entry, looked up): as above

[6] = biological target: FVIII control (mock preparation, not PEGylated) (UniProt P00451)
FVIII control (mock preparation, not PEGylated), sequence (P00451 whole entry, looked up): as above

[7] = biological target: PEG-rFVIII Lys 40K br long (UniProt P00451)
PEG-rFVIII Lys 40K br long, sequence (P00451 whole entry, looked up): as above

[8] = biological target: PEG-rFVIII Lys 60K br short (UniProt P00451)
PEG-rFVIII Lys 60K br short, sequence (P00451 whole entry, looked up): as above

[9] = biological target: PEG-rFVIII Lys 60K br long (UniProt P00451)
PEG-rFVIII Lys 60K br long, sequence (P00451 whole entry, looked up): as above

[10] = biological target: PEG-rFVIII Lys 20K br long (UniProt P00451)
PEG-rFVIII Lys 20K br long, sequence (P00451 whole entry, looked up): as above

[11] = biological target: native rVWF 133P1 (human) (UniProt P04275); assay: SPR (Biacore 3000): native rVWF 133P1 immobilized on CM5 chip, FVIII sample in flow, 1:1 Langmuir model
[12] = biological target: activated factor IX (FIXa); assay: cell-based or functional assay
[13] = biological target: native rFVIII MOQ HEPES 01-E (Advate rAHF-PFM bulk drug substance) (UniProt P00451); assay: ELISA chromogenic assay (ECA); mean of 133P1-1 to 133P1-3
[14] = biological target: native rFVIII MOQ HEPES 01-E (Advate rAHF-PFM bulk drug substance) (UniProt P00451); assay: ECA after in vitro incubation in Hepes buffer pH ~7.5 at ambient temperature, day 5
[15] = biological target: native rFVIII MOQ HEPES 01-E (Advate rAHF-PFM bulk drug substance) (UniProt P00451); assay: ECA after in vitro incubation in Hepes buffer pH ~7.5 at ambient temperature, day 8
[16] = biological target: native rFVIII MOQ HEPES 01-E (Advate rAHF-PFM bulk drug substance) (UniProt P00451); assay: SPR (Biacore 3000): rVWF sample immobilized on CM5 chip, rFVIII in flow, 1:1 Langmuir model
[17] = biological target: native rFVIII MOQ HEPES 01-E (Advate rAHF-PFM bulk drug substance) (UniProt P00451); assay: ECA after in vitro incubation in Hepes buffer pH ~7.5 at ambient temperature, day 2
[18] = biological target: native rFVIII MOQ HEPES 01-E (Advate rAHF-PFM bulk drug substance) (UniProt P00451); assay: SPR (Biacore 3000): rVWF sample immobilized on CM5 chip, rFVIII in flow, 1:1 Langmuir model; mean of 133P1-1 and 133P1-2
[19] = biological target: native rFVIII MOQ HEPES 01-E (Advate rAHF-PFM bulk drug substance) (UniProt P00451); assay: SPR competition (Biacore): VWF-rFVIII complex (5 IU/ml rFVIII) in flow over immobilized unmodified rVWF (competitor)
[20] = biological target: native rFVIII MOQ HEPES 01-E (Advate rAHF-PFM bulk drug substance) (UniProt P00451); assay: ELISA chromogenic assay (ECA): VWF-rFVIII complex captured on anti-VWF antibody, bound FVIII by chromogenic assay; percent of VWF:Ag
[21] = biological target: native rFVIII MOQ HEPES 01-E (Advate rAHF-PFM bulk drug substance) (UniProt P00451); assay: ECA after in vitro incubation in Hepes buffer pH ~7.5 at ambient temperature, day 0
[22] = biological target: native rFVIII MOQ HEPES 01-E (Advate rAHF-PFM bulk drug substance) (UniProt P00451); assay: ELISA chromogenic assay (ECA): VWF-rFVIII complex captured on anti-VWF antibody, bound FVIII by chromogenic assay; remark: listed apart in the source
[23] = biological target: native rFVIII MOQ HEPES 01-E (Advate rAHF-PFM bulk drug substance) (UniProt P00451); assay: SPR (Biacore 3000): rVWF sample immobilized on CM5 chip, rFVIII in flow, 1:1 Langmuir model; remark: listed apart in the source
[24] = biological target: native rFVIII MOQ HEPES 01-E (Advate rAHF-PFM bulk drug substance) (UniProt P00451)
[25] = biological target: PEG-rVWF Lys 40K br short low, P04275
[26] = biological target: PEG-rVWF Lys 40K br long low, P04275
[27] = biological target: native rVWF 133P1, P04275
[28] = biological target: PEG-rVWF Lys 20K br short low, P04275
[29] = biological target: PEG-rVWF Lys 20K br long low, P04275

native rFVIII MOQ HEPES 01-E (Advate rAHF-PFM bulk drug substance), sequence (P00451 whole entry, looked up): as above

Molecule: thrombin
- Relative k' (first order inactivation rate relative to native rFVIII), 0.5 nM thrombin, FIXa-cofactor assay [4]: 0.35
- Relative k' (first order inactivation rate relative to native rFVIII), 0.5 nM thrombin, FIXa-cofactor assay [5]: 0.48
- Relative k' (first order inactivation rate relative to native rFVIII), 0.5 nM thrombin, FIXa-cofactor assay [6]: 0.72
- Relative k' (first order inactivation rate relative to native rFVIII), 0.5 nM thrombin, FIXa-cofactor assay [7]: 0.44
- Relative k' (first order inactivation rate relative to native rFVIII), 0.5 nM thrombin, FIXa-cofactor assay [8]: 0.46
- Relative k' (first order inactivation rate relative to native rFVIII), 0.5 nM thrombin, FIXa-cofactor assay [9]: 0.51
- Relative k' (first order inactivation rate relative to native rFVIII), 0.5 nM thrombin, FIXa-cofactor assay [10]: 0.39

Molecule: native rFVIII MOQ HEPES 01-E (Advate rAHF-PFM bulk drug substance) (from UniProt P00451 20-2351)
- Kd [11]: 1.5 nM
- lag phase (min), FIXa-cofactor activity after thrombin activation [12]: 1.15 min
- lag phase (min), FIXa-cofactor activity without thrombin activation [12]: 2.4 min
- maximum FXa (nM), FIXa-cofactor activity after thrombin activation [12]: 25.1 nM
- maximum FXa (nM), FIXa-cofactor activity without thrombin activation [12]: 30.1 nM
- maximum rate (nM FXa/min), FIXa-cofactor activity after thrombin activation [12]: 4.24 nM FXa/min
- maximum rate (nM FXa/min), FIXa-cofactor activity without thrombin activation [12]: 6.7 nM FXa/min
- t1/2 of maximum (min), FIXa-cofactor activity after thrombin activation [12]: 4.24 min
- t1/2 of maximum (min), FIXa-cofactor activity without thrombin activation [12]: 4.6 min

Molecule: activated protein C (APC)
- Relative k' of APC-mediated inactivation (non-activated FVIII) relative to native rFVIII [4]: 0.46
- Relative k' of APC-mediated inactivation of thrombin-activated FVIII relative to native rFVIIIa [4]: 0.5
- first order rate of inactivation k', non-activated rFVIII, 0.05 U/ml APC [24]: a first order rate inactivation was observed, with a k' of 0.220*min^-1
- Relative k' of APC-mediated inactivation (non-activated FVIII) relative to native rFVIII [5]: 0.44
- Relative k' of APC-mediated inactivation of thrombin-activated FVIII relative to native rFVIIIa [5]: 0.55
- Relative k' of APC-mediated inactivation (non-activated FVIII) relative to native rFVIII [7]: 0.35
- Relative k' of APC-mediated inactivation of thrombin-activated FVIII relative to native rFVIIIa [7]: 0.54
- Relative k' of APC-mediated inactivation (non-activated FVIII) relative to native rFVIII [8]: 0.52
- Relative k' of APC-mediated inactivation of thrombin-activated FVIII relative to native rFVIIIa [8]: 0.54
- Relative k' of APC-mediated inactivation (non-activated FVIII) relative to native rFVIII [9]: 0.38
- Relative k' of APC-mediated inactivation of thrombin-activated FVIII relative to native rFVIIIa [9]: 0.64
- Relative k' of APC-mediated inactivation (non-activated FVIII) relative to native rFVIII [10]: 0.56
- Relative k' of APC-mediated inactivation of thrombin-activated FVIII relative to native rFVIIIa [10]: 0.5

B1: ADAMTS13 (VWF cleaving protease) (protein)
chain: AAGGILHLELLVAVGPDVFQAHQEDTERYVLTNLNIGAELLRDPSLGAQFRVHLVKMVILTEPEGAPNITANLTSSLLSVCGWSQTINPEDDTDPGHADLVLYITRFDLELPDGNRQVRGVTQLGGACSPTWSCLITEDTGFDLGVTIAHEIGHSFGLEHDGAPGSGCGPSGHVMASDGAAPRAGLAWSPCSRRQLLSLLSAGRARCVWDPPRPQPGSAGHPPDAQPGLYYSANEQCRVAFGPKAVACTFAREHLDMCQALSCHTDPLDQSSCSRLLVPLLDGTECGVEKWCSKGRCRSLVELTPIAAVHGRWSSWGPRSPCSRSCGGGVVTRRRQCNNPRPAFGGRACVGADLQAEMCNTQACEKTQLEFMSQQCARTDGQPLRSSPGGASFYHWGAAVPHSQGDALCRHMCRAIGESFIMKRGDSFLDGTRCMPSGPREDGTLSLCVSGSCRTFGCDGRMDSQQVWDRCQVCGGDNSTCSPRKGSFTAGRAREYVTFLTVTPNLTSVYIANHRPLFTHLAVRIGGRYVVAGKMSISPNTTYPSLLEDGRVEYRVALTEDRLPRLEEIRIWGPLQEDADIQVYRRYGEEYGNLTRPDITFTYFQPKPRQAWVWAAVRGPCSVSCGAGLRWVNYSCLDQARKELVETVQCQGSQQPPAWPEACVLEPCPPYWAVGDFGPCSASCGGGLRERPVRCVEAQGSLLKTLPPARCRAGAQQPAVALETCNPQPCPARWEVSEPSSCTSAGGAGLALENETCVPGADGLEAPVTEGPGSVDEKLPAPEPCVGMSCPPGWGHLDATSAGEKAPSPWGSIRTGAQAAHVWTPAAGSCSVSCGRGLMELRFLCMDSALRVPVQEELCGLASKPGSRREVCQAVPCPARWQYKLAACSVSCGRGVVRRILYCARAHGEDDGEEILLDTQCQGLPRPEPQEACSLEPCPPRWKVMSLGPCSASCGLGTARRSVACVQLDQGQDVEVDEAACAALVRPEASVPCLIADCTYRWHVGTWMECSVSCGDGIQRRRDTCLGPQAQAPVPADFCQHLPKPVTVRGCWAGPCVGQGTPSLVPHEEAAAPGRTTATPAGASLEWSQARGLLFSPAPQPRRLLPGPQENSVQSSACGRQHLEPTGTIDMRGPGQADCAVAIGRPLGEVVTLRVLESSLNCSAGDMLLLWGRLTWRKMCRKLLDMTFSSKTNTLVVRQRCGRPGGGVLLRYGSQLAPETFYRECDMQLFGPWGEIVSPSLSPATSNAGGCRLFINVAPHARIAIHALATNMGAGTEGANASYILIRDTHSLRTTAFHGQQVLYWESESSQAEMEFSEGFLKAQASLRGQYWTLQSWVPEMQDPQSWKGKEGT
- loss of VWF:CB activity after 4 h incubation with ADAMTS13 under denaturing conditions [25]: The PEGylated conjugates showed a slightly higher susceptibility to ADAMTS13 than their parent native rVWF.
- loss of VWF:CB activity after 4 h incubation with ADAMTS13 under denaturing conditions [26]: The PEGylated conjugates showed a slightly higher susceptibility to ADAMTS13 than their parent native rVWF.
- disappearance of higher molecular weight multimers after incubation with ADAMTS13 [27]: All preparations showed similar sensitivity to ADAMTS13.
- loss of VWF:CB activity after 4 h incubation with ADAMTS13 under denaturing conditions [28]: The PEGylated conjugates showed a slightly higher susceptibility to ADAMTS13 than their parent native rVWF.
- loss of VWF:CB activity after 4 h incubation with ADAMTS13 under denaturing conditions [29]: The PEGylated conjugates showed a slightly higher susceptibility to ADAMTS13 than their parent native rVWF.

Results, then the molecule that gave them:

- VWF:FVIIIB (U/mg) [1]: 95 U/mg
- VWF:FVIIIB capacity (%) [2]: 84%
- VWF:FVIIIB (U/ml) [3]: 15.5 U/ml
Molecule: rVWF control (mock preparation, not PEGylated) (from UniProt P04275 764-2813)

- VWF:FVIIIB (U/ml) [13]: 41.2 U/ml
- VWF:FVIIIB specific activity (U/mg protein) [14]: 93 U/mg protein
- VWF:FVIIIB specific activity (U/mg protein) [15]: 84 U/mg protein
- Kd [16]: 0.29 nM and 0.55 nM and 0.48 nM
- VWF:FVIIIB specific activity (U/mg protein) [17]: 66 U/mg protein
- Kd [18]: 0.39 nM
- VWF to FVIII ratio to keep all FVIII in a complex [19]: 1 µg/IU
- VWF:FVIIIB capacity (%) [20]: 84%
- VWF:FVIIIB (U/mg) [1]: 134 U/mg
- VWF:FVIIIB specific activity (U/mg protein) [21]: 81 U/mg protein
- VWF:FVIIIB (U/ml) [22]: 46 U/ml
- VWF:FVIIIB (U/ml) [3]: 47.9 U/ml and 37.9 U/ml and 37.8 U/ml
- Kd [23]: 0.549 nM
Molecule: native rVWF 133P1 (from UniProt P04275 764-2813)
